{"source": "patent CN116745314A", "biological_target": "spike glycoprotein of live SARS-CoV-2 (isolate USA-WA1/2020) (SARS-CoV-2) (UniProt P0DTC2)", "test": "cell-based or functional assay", "data": [{"substance": "S2E12-LS (antibody)", "values": [{"measurement": "EC50 (live SARS-CoV-2-luc neutralisation, MOI 0.1, 6 h)", "result": 5, "unit": "ng/mL"}, {"measurement": "EC90 (live SARS-CoV-2-luc neutralisation, MOI 0.1, 6 h)", "result": 30, "unit": "ng/mL"}, {"measurement": "IC50 (live SARS-CoV-2-luc neutralisation, MOI 0.1, 6 h)", "result": 4.84, "unit": "ng/mL"}]}]}
